Assay results taken from the supplement of paper PMC9732359.
± gives the uncertainty stated by the source.

Experiment: protein stability index of a GFP-peptide fusion (yeast GPS) (PSI 1-4); higher = more stable; sorted into four equal gates, so the index is relative within each strain
Method in brief: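 For each peptide, the protein stability index sums the read frequency in every gate after multiplying it by the gate number. Read frequencies came from plasmids that were PCR-amplified from each gate and Illumina-sequenced, with reads assigned to strains by barcodes. The gates were four equal bins of GFP/Cherry fluorescence ratio applied to mid-log yeast in leucine-free medium carrying a pooled library of tiled 17-residue yeast protein peptides fused downstream of GFP on a Cherry-expressing plasmid.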

Sequence	protein stability index (doa10∆)	protein stability index (pdr5∆)	protein stability index (san1∆)	protein stability index (ubr1∆)
IKKKRKELFEKTFDYVS [SMC1]	3.16 ± 0.12	3.07 ± 0.099	3.09 ± 0.12	3.13 ± 0.084
RLYVKGKHLSYQRSKRV [RPL33A]	2.1 ± 0.063	1.75 ± 0.046	1.67 ± 0.094	2.46 ± 0.065
KLLKVCLTMFEDRNESV [ECM29]	2.41 ± 0.14	1.99 ± 0.27	2.58 ± 0.078	2.66 ± 0.16
PIVIIFRALGIIPDGEI [RPB2]	1.92 ± 0.048	1.79 ± 0.056	2.05 ± 0.063	2.41 ± 0.039
LREFRITHNTNITDNLF [GRR1]	1.32 ± 0.15	1.28 ± 0.15		2.07 ± 0.11
EFDSTDTSLCINGEPSI [RRI1]	3.16 ± 0.077	3.15 ± 0.088	3.08 ± 0.054	3.24 ± 0.046
GAGIERELARIKKYASV [RPL3]	3.49 ± 0.21	3.46 ± 0.17		
HIPRLIPKQLLDDEKIF [YJL039C/NUP192]	1.44 ± 0.18	1.54 ± 0.088	1.87 ± 0.19	1.31 ± 0.08
YACISSRPGQSGRCDGY [RPS8A]	3.02 ± 0.1	3.21 ± 0.12	3.35 ± 0.097	3.28 ± 0.046
AIVLPMKRADKFKDMGI [RPT5]	2.39 ± 0.096	3.11 ± 0.24	3.09 ± 0.17	3.09 ± 0.16
SGQTFAYGVLDSNYKWD [PRE2]	2.39 ± 0.075	2.76 ± 0.098	1.85 ± 0.14	2.7 ± 0.11
SSLFQEKLLETNVSKQN [ECM29]	2.74 ± 0.11	2.55 ± 0.1	2.35 ± 0.065	2.52 ± 0.071
LEAKRKVSSAEYYAKKR [RPL16A]	3.06 ± 0.14	3.3 ± 0.11	2.86 ± 0.11	3.35 ± 0.09
ALECRLASAIASGLLRA [CSN12]	1.58 ± 0.072	2.08 ± 0.082	1.77 ± 0.1	1.94 ± 0.075
ARRLKNRAARDRRAQRV [RPL19A]	2.97 ± 0.14	3.43 ± 0.1	2.57 ± 0.13	3.17 ± 0.062
NTHAVLVALKRNADELS [PRE5]	2.13 ± 0.067	2.69 ± 0.05	2.45 ± 0.05	2.41 ± 0.039
EVALFSQKAKLMTFNAE [YLR335W/NUP2]	2.27 ± 0.08	1.47 ± 0.057	1.5 ± 0.1	1.4 ± 0.085
ADDADIEMKDVSSKPSK [MED1]	3.17 ± 0.1	3.29 ± 0.11	2.95 ± 0.065	3.26 ± 0.066
RIKITANNNMNDELVEL [GRR1]	2.35 ± 0.051	2.41 ± 0.053	2.33 ± 0.062	2.71 ± 0.041
VWAPTQKCFKLTHRLGG [POP1]	2.2 ± 0.056	1.88 ± 0.056	2.3 ± 0.085	2.47 ± 0.054
RTPVPSTLMPGGVDVGP [SNF5]		3 ± 0.15	2.73 ± 0.17	
YYNEEGIHILLYSGLII [RPC82]	2.01 ± 0.1	2.04 ± 0.094	2.14 ± 0.18	2.28 ± 0.037
THHTDIIPIVDYAQLDH [ARP9]	2.58 ± 0.051	2.39 ± 0.041	2.66 ± 0.039	2.61 ± 0.031
GRNRGRPNRRGPRNTEE [RPS2]	3.38 ± 0.069	3.24 ± 0.16	3.58 ± 0.1	3.45 ± 0.083
LSNPSNQNICTSVTRRS [GRR1]	2.42 ± 0.083	2.49 ± 0.052	2.62 ± 0.055	2.53 ± 0.039
NNDLESVSMLLQYYILE [RRI2]	2.94 ± 0.047	3.16 ± 0.049	3.16 ± 0.034	3.122 ± 0.031
EIEQNTELLDEFIAAVN [RPN10]	3.36 ± 0.082	3.32 ± 0.11	2.79 ± 0.099	3.16 ± 0.082

Sequence	protein stability index (doa10∆)	protein stability index (pdr5∆)	protein stability index (san1∆)	protein stability index (ubr1∆)
KKPGKIAKPNTANAKHT [SMB1]	2.87 ± 0.071	2.73 ± 0.091	2.75 ± 0.089	2.85 ± 0.066
VSLQNFSSSVSLSYMAF [RRP40]	2.22 ± 0.047	1.64 ± 0.041	1.76 ± 0.074	1.83 ± 0.04
TMADAVRELGILCIFEG [SEC65]	2.52 ± 0.06	2.05 ± 0.071	2.62 ± 0.063	1.45 ± 0.062
LDNSKMDYHFIFSYLQF [RGR1]	2.45 ± 0.061	1.72 ± 0.056	1.89 ± 0.047	1.8 ± 0.065
ALSGNEGDASPFTDITV [RPB2]	2.99 ± 0.14	3.12 ± 0.075	3.12 ± 0.099	3.1 ± 0.15
ITLRGVENIERVVMMKY [RPO21]	2.22 ± 0.12	2.28 ± 0.096	1.23 ± 0.16	2.19 ± 0.076
SIEVQSLPEFFTNRIPS [SWI3]	2.64 ± 0.055	2.66 ± 0.048	2.51 ± 0.064	2.61 ± 0.047
LIFIACNDEDKDLETLY [ECM29]	3.11 ± 0.084	3.04 ± 0.067	2.3 ± 0.089	2.92 ± 0.035
INKYESSPSHIELVVTE [RPL17A]	2.08 ± 0.045	2.56 ± 0.051	2.05 ± 0.067	2.17 ± 0.036
KWPEYVRVQRQKKILSI [RPL8A]	1.2 ± 0.06	1.5 ± 0.055	1.15 ± 0.098	1.23 ± 0.038
GLGVNRRILAAAAAAAA [SSN3]	1.44 ± 0.07	1.52 ± 0.083	1.08 ± 0.2	1.95 ± 0.069
SVARVEDHDVHSNESSN [IRR1]	2.7 ± 0.059	2.99 ± 0.061	3.01 ± 0.052	2.81 ± 0.058
SVFGFRTQFGGGKSVGF [RPS24A]	2.56 ± 0.13	2.23 ± 0.076	3.31 ± 0.076	2.77 ± 0.088
KLLSLLRSKTSAGRIES [SIR4]	2.11 ± 0.082	2.17 ± 0.087	2.42 ± 0.15	2.36 ± 0.12
HVKIRATGGTRTKTPGP [RPS14B]	1.38 ± 0.13	1.84 ± 0.15	2.25 ± 0.25	
GVTIEFSTNVKDEIVLS [RPL9A]	3.09 ± 0.23	3.33 ± 0.13	3.3 ± 0.088	3.18 ± 0.065
LWNQWLKLNTSLPSKLT [SRP68]	1.45 ± 0.049	1.51 ± 0.052	1.36 ± 0.11	1.83 ± 0.037
NTSIAQFDIQSPLYMDT [YML103C/NUP188]	2.99 ± 0.08	2.89 ± 0.049	2.08 ± 0.081	3.01 ± 0.058
QINNVHLIPNEIKGASE [RPN4]	2.84 ± 0.064	2.75 ± 0.059	2.42 ± 0.06	2.76 ± 0.052
TTVQVAEEAIVNAMRVL [PRE4]	2.91 ± 0.12	2.72 ± 0.091	1.88 ± 0.27	2.54 ± 0.09
WKQDLTKEEAIKLASDA [PUP1]	2.81 ± 0.19	3.16 ± 0.14	2.2 ± 0.14	3.01 ± 0.16
VEKGVNPTKSKEILDNI [ECM29]	3.26 ± 0.14	3.5 ± 0.12	3.37 ± 0.25	3.62 ± 0.14
GTGKTMLVKAVANSTKA [RPT3]	2.64 ± 0.19	1.47 ± 0.1	2.02 ± 0.096	1.31 ± 0.13
VRLQRQKKILSIRLKVP [RPL8B]	1.5 ± 0.032	1.29 ± 0.032	1.27 ± 0.055	1.25 ± 0.025
ISALTQTEIKDIILGQN [PRP8]	2.1 ± 0.054	2.51 ± 0.061	1.92 ± 0.077	1.99 ± 0.052
SIGEPGTQMTLKTFHFA [RPO31]			2.56 ± 0.096	2.65 ± 0.17
DSVFEQNEMIDAIAVTK [RPL3]	2.57 ± 0.095	2.8 ± 0.12	2.31 ± 0.1	2.51 ± 0.042
